B1: R3P2-G1 mAb (antibody, V domains shown)
VH: QVQLVQSGGGLIQPGGSLRLSCAASGVTVSSNYMSWVRQAPGRGLEWVSLIYPGGSTYYADSVKGRFTISRDNSRNTLYLQMNSLRAEDTAVYYCARDLSEKGGMDVWGQGTTVTVSS
VL: QAVLTQPPSVSVAPGKTARITCGGNHIGSKSVNWYQQKSGQAPVLVIYSDSDRPSGIPARFSGSNSGDTATLTISRVEAGDEADYYCQVWDNRSDHWVFGGGTQLTVL
B2: R3P2-B5 mAb (antibody, V domains shown)
VH: QVQLVQSGGGLIQPGGSLRLSCAASGVTVSSNYMSWVRQAPGRGLEWVSLIYPGGSTYYADSVKGRFTISRDNSRNTLYLQMNSLRAEDTAVYYCARDLSEKGGMDVWGQGTLVTVSS
VL: EIVMTQSPGTLSLSPGERVTLSCRTSQSVSRFFSWYQQKPGQAPRLLIHTASTRATDIPDRFSASGSGTDFTLTISRLEPEDSAMYYCQHYGASPYTFGQGTKVDIK
B3: REGN10933 mAb (antibody, V domains shown)
VH: QVQLVESGGGLVKPGGSLRLSCAASGFTFSDYYMSWIRQAPGKGLEWVSYITYSGSTIYYADSVKGRFTISRDNAKSSLYLQMNSLRAEDTAVYYCARDRGTTMVPFDYWGQGTLVTVSS
VL: DIQMTQSPSSLSASVGDRVTITCQASQDITNYLNWYQQKPGKAPKLLIYAASNLETGVPSRFSGSGSGTDFTFTISGLQPEDIATYYCQQYDNLPLTFGGGTKVEIK
B4: CB6 mAb (antibody, V domains shown)
VH: EVQLVESGGGLVQPGGSLRLSCAASGFTVSSNYMSWVRQAPGKGLEWVSVIYSGGSTFYADSVKGRFTISRDNSMNTLFLQMNSLRAEDTAVYYCARVLPMYGDYLDYWGQGTLVTVSS
VL: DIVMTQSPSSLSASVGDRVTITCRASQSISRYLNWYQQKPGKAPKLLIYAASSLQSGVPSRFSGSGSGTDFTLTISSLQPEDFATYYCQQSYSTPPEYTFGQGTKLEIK
B5: R3P2-A2 mAb (antibody, V domains shown)
VH: QVQLVQSGGGLIQPGGSLRLSCAASGVTVSSNYMSWVRQAPGRGLEWVSLIYPGGSTYYADSVKGRFTISRDNSRNTLYLQMNSLRAEDTAVYYCARDLSEKGGMDVWGQGTMVTVSS
VL: EIVMTQSPSVLPLFPGESGSLSCRASQNVGDFLAWYQHKPGQAPKLLIYGATNRPTGIPDRFSGTGSGTDFTLTISRMEPEDFAVYFCQQYGTSPPITFGPGTKVDIK
B6: R3P1-E4 mAb (antibody, V domains shown)
VH: QVQLVQSGGGLIQPGGSLRLSCAASGVTVSSNYMSWVRQAPGRGLEWVSLIYPGGSTYYADSVKGRFTISRDNSRNTLYLQMNSLRAEDTAVYYCARDLSEKGGMDVWGQGTTVTVSS
VL: DIVMTQSPSSLSASVGDRVTITCRASQGISSYLAWYQQKPGKAPKLLIYAASTLQSGVPSRFSGSGSGTDFTLTISSLQPEDFATYYCQQLNSYPRFGPGTKVEIK

What follows are binders tested against T1, SARS-CoV-2 S protein RBD domain (wild type) (SARS-CoV-2, UniProt P0DTC2) (assay: ELISA). Settings: both partners purified.

Binder | binding result
B1 | binds
B2 | binds
B3 | binds
B4 | binds

What follows are binders tested against T1, SARS-CoV-2 S protein RBD domain (wild …) (assay: SPR). Settings: both partners purified.

Binder | Kd
B5 | 2.32 nM
B6 | 0.82 nM
